We go through two substances from PMC8604303.

Assay [1] concerns the target C9 TMH-1 lock mutant (C9_(TMH-1 lock), F262C V405C) (human) (UniProt P02748).
Assay [2] shares this target. This is another data set of the same source.
Assay [3] has as its target C5b-8 (MAC precursor of C5b, C6, C7 and C8) assembled on E. coli (human) (UniProt P01031). Nature of the assay: flow cytometry on cells; as a1 but Cy5-labelled C9 added with 10 mM DTT (the methods give 20 nM C8 added 15 min before C9 at RT).
The target of assay [4] is C9 TMH-1 lock mutant (C9_(TMH-1 lock), F262C V405C) (human) (UniProt P02748). Nature of the assay: SDS-PAGE of SDS-stable polymeric-C9, in-gel Cy5 fluorescence; as a3 but 20 nM Cy5-labelled C9 incubated with the C5b-8 labelled bacteria in 10 mM DTT.
The target in assay [5] is C5b-8 (MAC precursor of C5b, C6, C7 and C8) assembled on E. coli (human) (UniProt P01031). Nature of the assay: flow cytometry on cells; E. coli MG1655 labelled with C5b-7, washed, 10 nM C8 and a concentration range of Cy5-labelled C9 for 30 min; geoMFI. (In flow cytometry, cells or beads pass a laser one at a time.)
Assay [6] has the same target. The experiment in a line: flow cytometry on cells; E. coli MG1655 labelled with C5b-7 (10% C8-depleted serum, 30 min), washed, 10 nM C8 for 15 min, then 20 nM Cy5-labelled C9 for 30 min, no DTT; RPMI + 0.05% HSA; geoMFI.
Assay [7] shares this target. The experiment in a line: flow cytometry on cells; complement-sensitive E. coli (MG1655, BW25113, MC1061, 547563.1, CGSC7740 wildtype) in 3% C9-depleted serum with 25 nM Cy5-labelled C9 for 30 min at 37 C; Syto9 trigger; MFI.
For assay [8] the target is unchanged. The experiment in a line: flow cytometry on cells; complement-resistant E. coli that express LPS O-Ag (552059.1, 552060.1, 567705.1, CGSC7740 wbbL+) in 3% C9-depleted serum with 25 nM Cy5-labelled C9 (up to 10-fold more on 552059.1) for 30 min at 37 C; MFI.

wildtype C9 (C9wt), sequence (P02748 22-559): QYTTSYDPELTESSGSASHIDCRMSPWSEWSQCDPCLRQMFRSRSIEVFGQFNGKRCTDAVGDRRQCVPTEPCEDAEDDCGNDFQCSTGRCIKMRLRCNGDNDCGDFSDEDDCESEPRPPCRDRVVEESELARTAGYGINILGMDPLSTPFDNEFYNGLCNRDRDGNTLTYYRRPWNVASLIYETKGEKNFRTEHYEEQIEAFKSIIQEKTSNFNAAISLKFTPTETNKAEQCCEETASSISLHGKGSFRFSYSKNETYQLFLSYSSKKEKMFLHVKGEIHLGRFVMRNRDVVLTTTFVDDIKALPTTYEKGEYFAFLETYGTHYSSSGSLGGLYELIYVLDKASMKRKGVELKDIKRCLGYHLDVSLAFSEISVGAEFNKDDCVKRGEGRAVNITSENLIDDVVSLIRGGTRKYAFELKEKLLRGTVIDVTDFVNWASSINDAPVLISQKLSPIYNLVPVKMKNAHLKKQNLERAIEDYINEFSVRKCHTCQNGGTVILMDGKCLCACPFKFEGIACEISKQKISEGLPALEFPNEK

For “C9 TMH-1 lock mutant (C9_(TMH-1 lock), F262C V405C) (from UniProt P02748 22-559) (natural protein)”, in assay [1], the bacterial viability (CFU) of C5b-8 labelled E. coli MG1655 with 100 nM C9, decrease compared to C5b-8 alone amounted to 10 fold. In assay [2], this substance had a bacterial viability (CFU) of E. coli MG1655 in 3% C9-depleted serum with 25 nM C9 after 30 min, against C9wt of 1000 fold; an outer membrane damage (DiOC2) and inner membrane damage (Sytox) of E. coli MG1655 in 3% C9-depleted serum with 25 nM C9, delay against C9wt of 30 min. In assay [3], the fold binding with DTT against C9 (TMH-1 lock) without DTT came out at 3 fold and the fold lower binding against C9wt with DTT lay in the range of 2 to 3 fold. In assay [4], this substance gave a fold lower polymeric-C9 detection against C9wt with DTT of 2 to 3 fold.

“wildtype C9 (C9wt) (from UniProt P02748 22-559) (natural protein)”: in assay [5], the fold binding against C9 (TMH-1 lock) is under 10 fold. Further, the fold binding against C9 (TMH-1 lock) in assay [6] amounted to 10 fold. In addition, in assay [7], the fold binding against C9 (TMH-1 lock) lay within 5 to 15 fold and the fold binding against C9 (TMH-1 lock), on CGSC7740 wildtype was 12 fold. In assay [8], the fold binding against C9 (TMH-1 lock), on 552059.1 with up to 10-fold more C9 was in the range of 2 to 3 fold and the fold binding against C9 (TMH-1 lock), on CGSC7740 wbbL+ came to 2.5 fold.
